Assays:
[1] = biological target: T1, biotinylated huCD28-Fc (dimeric CD28-Fc construct with a monovalent biotinylated avi-tag) (human, UniProt P10747 19-152, biotinylated at the C-terminal avi tag); assay: SPR, ProteOn XPR36, huCD28-Fc on NLC chip, bispecific as analyte
T1 construct: not shown: hum IgG1 Fc fragment with hole and PG-LALA mutations; hum IgG1 Fc fragment with knob and PG-LALA mutations

[2] = biological target: T2, human CD28 on CHO cells (parental cell line CHO-k1 ATCC #CCL-61, modified to stably overexpress human CD28) (human, UniProt P10747 19-220); assay: binding to CHO cells expressing human CD28 (by the table's title)
T2 construct: also called hu CD28; CHO-hCD28

[3] = biological target: human FAP on 3T3-huFAP cells (clone 19) (human, UniProt Q12884 1-760); assay: flow cytometry on 3T3-huFAP cells, FAP-CD28 1+1 constructs, MFI (PE)

Binder | Kd [1] | koff [1] | kon [1] | Kd [2] | binding result [3]
FAP (4B9) - CD28 (CD28(SA)_Variant 16) 1+1 (bispecific antibody, human IgG1, kappa, L234A L235A, huIgG1 PG-LALA CrossFab 1+1; also called P1AE3135) heavy 1: EIVLTQSPGTLSLSPGERATLSCRASQSVTSSYLAWYQQKPGQAPRLLINVGSRRATGIPDRFSGSGSGTDFTLTISRLEPEDFAVYYCQQGIMLPPTFGQGTKVEIKSSASTKGPSVFPLAPSSKSTSGGTAALGCLVKDYFPEPVTVSWNSGALTSGVHTFPAVLQSSGLYSLSSVVTVPSSSLGTQTYICNVNHKPSNTKVDKKVEPKSCDKTHTCPPCPAPEAAGGPSVFLFPPKPKDTLMISRTPEVTCVVVDVSHEDPEVKFNWYVDGVEVHNAKTKPREEQYNSTYRVVSVLTVLHQDWLNGKEYKCKVSNKALGAPIEKTISKAKGQPREPQVCTLPPSRDELTKNQVSLSCAVKGFYPSDIAVEWESNGQPENNYKTTPPVLDSDGSFFLVSKLTVDKSRWQQGNVFSCSVMHEALHNHYTQKSLSLSP light 1: EVQLLESGGGLVQPGGSLRLSCAASGFTFSSYAMSWVRQAPGKGLEWVSAIIGSGASTYYADSVKGRFTISRDNSKNTLYLQMNSLRAEDTAVYYCAKGWFGGFNYWGQGTLVTVSSASVAAPSVFIFPPSDEQLKSGTASVVCLLNNFYPREAKVQWKVDNALQSGNSQESVTEQDSKDSTYSLSSTLTLSKADYEKHKVYACEVTHQGLSSPVTKSFNRGEC heavy 2: not shown light 2: not shown | 5.3 nM | 0.000994 s⁻¹ | 187000 M⁻¹ s⁻¹ | 5.3 nM | binds
FAP (4B9)-CD28 (CD28(SA)_Variant 8) 1+1 (bispecific antibody, human IgG1, kappa, L234A L235A, huIgG1 PG-LALA CrossFab 1+1; also called P1AE3131) heavy 1: EIVLTQSPGTLSLSPGERATLSCRASQSVTSSYLAWYQQKPGQAPRLLINVGSRRATGIPDRFSGSGSGTDFTLTISRLEPEDFAVYYCQQGIMLPPTFGQGTKVEIKSSASTKGPSVFPLAPSSKSTSGGTAALGCLVKDYFPEPVTVSWNSGALTSGVHTFPAVLQSSGLYSLSSVVTVPSSSLGTQTYICNVNHKPSNTKVDKKVEPKSCDKTHTCPPCPAPEAAGGPSVFLFPPKPKDTLMISRTPEVTCVVVDVSHEDPEVKFNWYVDGVEVHNAKTKPREEQYNSTYRVVSVLTVLHQDWLNGKEYKCKVSNKALGAPIEKTISKAKGQPREPQVCTLPPSRDELTKNQVSLSCAVKGFYPSDIAVEWESNGQPENNYKTTPPVLDSDGSFFLVSKLTVDKSRWQQGNVFSCSVMHEALHNHYTQKSLSLSP light 1: EVQLLESGGGLVQPGGSLRLSCAASGFTFSSYAMSWVRQAPGKGLEWVSAIIGSGASTYYADSVKGRFTISRDNSKNTLYLQMNSLRAEDTAVYYCAKGWFGGFNYWGQGTLVTVSSASVAAPSVFIFPPSDEQLKSGTASVVCLLNNFYPREAKVQWKVDNALQSGNSQESVTEQDSKDSTYSLSSTLTLSKADYEKHKVYACEVTHQGLSSPVTKSFNRGEC heavy 2: not shown light 2: not shown | 23.8 nM | 0.00521 s⁻¹ | 219000 M⁻¹ s⁻¹ | 23.8 nM | binds

Results, then the binder that gave them:

Kd [1] | koff [1] | kon [1] | Kd [2] | binding result [3] | Binder
12.5 nM | 0.00287 s⁻¹ | 230000 M⁻¹ s⁻¹ | 12.5 nM | binds | FAP (4B9) - CD28 (CD28(SA)_Variant 11) 1+1 (bispecific antibody, human IgG1, kappa, L234A L235A, huIgG1 PG-LALA CrossFab 1+1; also called P1AE3132) heavy 1: EIVLTQSPGTLSLSPGERATLSCRASQSVTSSYLAWYQQKPGQAPRLLINVGSRRATGIPDRFSGSGSGTDFTLTISRLEPEDFAVYYCQQGIMLPPTFGQGTKVEIKSSASTKGPSVFPLAPSSKSTSGGTAALGCLVKDYFPEPVTVSWNSGALTSGVHTFPAVLQSSGLYSLSSVVTVPSSSLGTQTYICNVNHKPSNTKVDKKVEPKSCDKTHTCPPCPAPEAAGGPSVFLFPPKPKDTLMISRTPEVTCVVVDVSHEDPEVKFNWYVDGVEVHNAKTKPREEQYNSTYRVVSVLTVLHQDWLNGKEYKCKVSNKALGAPIEKTISKAKGQPREPQVCTLPPSRDELTKNQVSLSCAVKGFYPSDIAVEWESNGQPENNYKTTPPVLDSDGSFFLVSKLTVDKSRWQQGNVFSCSVMHEALHNHYTQKSLSLSP light 1: EVQLLESGGGLVQPGGSLRLSCAASGFTFSSYAMSWVRQAPGKGLEWVSAIIGSGASTYYADSVKGRFTISRDNSKNTLYLQMNSLRAEDTAVYYCAKGWFGGFNYWGQGTLVTVSSASVAAPSVFIFPPSDEQLKSGTASVVCLLNNFYPREAKVQWKVDNALQSGNSQESVTEQDSKDSTYSLSSTLTLSKADYEKHKVYACEVTHQGLSSPVTKSFNRGEC heavy 2: not shown light 2: not shown
7.1 nM | 0.00184 s⁻¹ | 259000 M⁻¹ s⁻¹ | 7.1 nM | binds | FAP (4B9) - CD28 (CD28(SA)_Variant 15) 1+1 (bispecific antibody, human IgG1, kappa, L234A L235A, huIgG1 PG-LALA CrossFab 1+1; also called P1AE3134) heavy 1: EIVLTQSPGTLSLSPGERATLSCRASQSVTSSYLAWYQQKPGQAPRLLINVGSRRATGIPDRFSGSGSGTDFTLTISRLEPEDFAVYYCQQGIMLPPTFGQGTKVEIKSSASTKGPSVFPLAPSSKSTSGGTAALGCLVKDYFPEPVTVSWNSGALTSGVHTFPAVLQSSGLYSLSSVVTVPSSSLGTQTYICNVNHKPSNTKVDKKVEPKSCDKTHTCPPCPAPEAAGGPSVFLFPPKPKDTLMISRTPEVTCVVVDVSHEDPEVKFNWYVDGVEVHNAKTKPREEQYNSTYRVVSVLTVLHQDWLNGKEYKCKVSNKALGAPIEKTISKAKGQPREPQVCTLPPSRDELTKNQVSLSCAVKGFYPSDIAVEWESNGQPENNYKTTPPVLDSDGSFFLVSKLTVDKSRWQQGNVFSCSVMHEALHNHYTQKSLSLSP light 1: EVQLLESGGGLVQPGGSLRLSCAASGFTFSSYAMSWVRQAPGKGLEWVSAIIGSGASTYYADSVKGRFTISRDNSKNTLYLQMNSLRAEDTAVYYCAKGWFGGFNYWGQGTLVTVSSASVAAPSVFIFPPSDEQLKSGTASVVCLLNNFYPREAKVQWKVDNALQSGNSQESVTEQDSKDSTYSLSSTLTLSKADYEKHKVYACEVTHQGLSSPVTKSFNRGEC heavy 2: not shown light 2: not shown
3.7 nM | 0.00125 s⁻¹ | 338000 M⁻¹ s⁻¹ | 3.7 nM | binds | FAP (4B9) - CD28 (CD28(SA)_Variant 17) 1+1 (bispecific antibody, human IgG1, kappa, L234A L235A, huIgG1 PG-LALA CrossFab 1+1; also called P1AE3136) heavy 1: EIVLTQSPGTLSLSPGERATLSCRASQSVTSSYLAWYQQKPGQAPRLLINVGSRRATGIPDRFSGSGSGTDFTLTISRLEPEDFAVYYCQQGIMLPPTFGQGTKVEIKSSASTKGPSVFPLAPSSKSTSGGTAALGCLVKDYFPEPVTVSWNSGALTSGVHTFPAVLQSSGLYSLSSVVTVPSSSLGTQTYICNVNHKPSNTKVDKKVEPKSCDKTHTCPPCPAPEAAGGPSVFLFPPKPKDTLMISRTPEVTCVVVDVSHEDPEVKFNWYVDGVEVHNAKTKPREEQYNSTYRVVSVLTVLHQDWLNGKEYKCKVSNKALGAPIEKTISKAKGQPREPQVCTLPPSRDELTKNQVSLSCAVKGFYPSDIAVEWESNGQPENNYKTTPPVLDSDGSFFLVSKLTVDKSRWQQGNVFSCSVMHEALHNHYTQKSLSLSP light 1: EVQLLESGGGLVQPGGSLRLSCAASGFTFSSYAMSWVRQAPGKGLEWVSAIIGSGASTYYADSVKGRFTISRDNSKNTLYLQMNSLRAEDTAVYYCAKGWFGGFNYWGQGTLVTVSSASVAAPSVFIFPPSDEQLKSGTASVVCLLNNFYPREAKVQWKVDNALQSGNSQESVTEQDSKDSTYSLSSTLTLSKADYEKHKVYACEVTHQGLSSPVTKSFNRGEC heavy 2: not shown light 2: not shown
